Consider three molecules from PMC2586972 (Structure (London, England : 1993), 2008).

One may read the Kd as a measure of binding affinity in units of concentration. High values mean a looser complex, low ones a tighter complex.

Assay [1] has as its target T1, N-terminally truncated Gα13(Q226L), GDP-bound (mouse, UniProt P27601 41-377, Q226L).
T1 sequence (looked up): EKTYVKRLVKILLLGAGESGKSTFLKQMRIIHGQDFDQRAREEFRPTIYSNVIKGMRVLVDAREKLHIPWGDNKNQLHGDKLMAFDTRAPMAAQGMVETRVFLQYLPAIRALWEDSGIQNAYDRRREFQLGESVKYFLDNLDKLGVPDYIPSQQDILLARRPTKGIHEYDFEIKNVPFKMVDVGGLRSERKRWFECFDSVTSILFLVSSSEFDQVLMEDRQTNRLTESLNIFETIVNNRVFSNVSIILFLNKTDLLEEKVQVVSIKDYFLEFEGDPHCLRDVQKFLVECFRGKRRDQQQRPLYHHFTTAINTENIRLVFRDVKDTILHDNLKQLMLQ
The assay is described as follows: crystal structure.

In assay [2] the target is T2, Gα13 (Mus musculus, UniProt P27601).
T2 chain: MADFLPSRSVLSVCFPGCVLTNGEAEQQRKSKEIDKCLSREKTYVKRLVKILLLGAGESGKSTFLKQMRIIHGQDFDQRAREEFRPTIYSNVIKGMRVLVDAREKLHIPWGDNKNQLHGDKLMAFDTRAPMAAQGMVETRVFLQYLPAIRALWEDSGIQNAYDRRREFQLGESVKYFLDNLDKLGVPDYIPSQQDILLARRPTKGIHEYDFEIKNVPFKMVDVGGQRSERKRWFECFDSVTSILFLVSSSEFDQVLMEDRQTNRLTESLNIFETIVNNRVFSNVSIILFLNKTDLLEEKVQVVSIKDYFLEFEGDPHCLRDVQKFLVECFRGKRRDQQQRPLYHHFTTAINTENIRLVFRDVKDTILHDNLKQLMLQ
The assay is described as follows: ITC.

B1: rgRGS domain of PDZRhoGEF/GTRAP48 (residues 307–508) (domain or fragment, rat, UniProt Q9ES67 307-508, looked up)
chain: LIIGPEEDYDPGYFNNESDIIFQDLEKLKSHPAYLVVFLRYILSQADPGPLLFYLCSEVYQQTNPKDSRSLGKDIWNIFLEKNAPLRVKIPEMLQAEIDLRLRNNEDPRNVLCEAQEAVMLEIQEQINDYRSKRTLGLGSLYGENDLLGLDGDPLRERQMAEKQLAALGDILSKYEEDRSAPMDFAVNTFMSHAGIRLRESR
For the molecule B1, in assay [1], the binding result is given as “binds”.

B2: PDZRhoGEF rgRGS (protein)
chain: ESDIIFQDLEKLKSRPAHLGVFLRYIFSQADPSPLLFYLCAEVYQQASPKDSRSLGKDIWNIFLEKNAPLRVKIPEMLQAEIDSRLRNSEDARGVLCEAQEAAMPEIQEQIHDYRTKRTLGLGSLYGENDLLDLDGDPLRERQVAEKQLAALGDILSKYEEDRSAPMDFALNTYMSHAGIR
modifications: GDP·AlF-bound Gα13
Consider B2, for which the Kd in assay [2] was approximately 500 nM.

B3: PDZRhoGEF rgRGS (protein)
chain: B2 chain
modifications: GTPγS-bound Gα13
With B3, in assay [2], the Kd is approximately 300 nM.
